The Human Domainome abundance scans (Beltran et al. 2025)
± gives the uncertainty stated by the source.

B1: 3'-5' exoribonuclease 1, residues 65 to 114; numbered along this chain, Q8IV48 (parent)
chain: VYKEIAITNGCINRMSKEELRAKLSEFKLETRGVKDVLKKRLKNYYKKQK

Variants of: B1
Experiment: abundance fitness (aPCA) (normalised: wild type 0, dead -1); higher = more abundant; growth selection in yeast, the domain comes from the species named
Settings: Homo sapiens

Row | Variant | abundance fitness
1 | VYKEIAITNGCINRMSKEELRAKLSEFKLETRGVKDFLKKRLKNYYKKQK [V37F] | -0.562 ± 0.053
2 | VYKEIAITNGCINRMSKEELRAKLSEFKLETRGVKDSLKKRLKNYYKKQK [V37S] | -0.136 ± 0.055
3 | VYKEIAITNGCINRMSKEELRAKLSEFKLETRGVYDVLKKRLKNYYKKQK [K35Y] | -0.827 ± 0.057
4 | VYKEIAITNGCINRMSKEELRAKLSEFKLETRGVADVLKKRLKNYYKKQK [K35A] | -0.347 ± 0.047
5 | VYKEIAITNGCINRMSKEELRAKLSEFKLETRGVDDVLKKRLKNYYKKQK [K35D] | -0.772 ± 0.063
6 | VYKEIAITNGCINRMSKEELRAKLSEFKLETRGVQDVLKKRLKNYYKKQK [K35Q] | -0.767 ± 0.075
7 | VYKEIAITNGCINRMSKEELRAKLSEFKLETRGVCDVLKKRLKNYYKKQK [K35C] | -0.58 ± 0.052
8 | VYKEIAITNGCINRMSKEELRAKLSEFKLETRGVHDVLKKRLKNYYKKQK [K35H] | -0.709 ± 0.048
9 | VYKEIAITNGCINRMSKEELRAKLSEFKLETRGVFDVLKKRLKNYYKKQK [K35F] | -0.81 ± 0.052
10 | VYKEIAITNGCINRMSKEELRAKLSEFKLETRGVSDVLKKRLKNYYKKQK [K35S] | -0.48 ± 0.038
11 | VYKEIAITNGCINRMSKEELRAKLSEFKLETRGVWDVLKKRLKNYYKKQK [K35W] | -0.815 ± 0.088
12 | VYKEIAITNGCINRMSKEELRAKLSEFKLETRGVGDVLKKRLKNYYKKQK [K35G] | -0.845 ± 0.052
13 | VYKEIAITNGCINRMSKEELRAKLSEFKLETRGVLDVLKKRLKNYYKKQK [K35L] | -0.698 ± 0.041
14 | VYKEIAITNGCINRMSKEELRAKLSEFKLETRGVIDVLKKRLKNYYKKQK [K35I] | -0.475 ± 0.047
15 | VYKEIAITNGCINRMSKEELRAKLSEFKLETRGVPDVLKKRLKNYYKKQK [K35P] | -0.797 ± 0.05
16 | VYKEIAITNGCINRMSKEELRAKLSEFKLETRGVMDVLKKRLKNYYKKQK [K35M] | -0.765 ± 0.064
17 | VYKEIAITNGCINRMSKEELRAKLSEFKLETRGVNDVLKKRLKNYYKKQK [K35N] | -0.697 ± 0.05
18 | VYKEIAITNGCINRMSKEELRAKLSEFKLETRGVRDVLKKRLKNYYKKQK [K35R] | -0.52 ± 0.041
19 | VYKEIAITNGCINRMSKEELRAKLSEFKLETRGVTDVLKKRLKNYYKKQK [K35T] | -0.314 ± 0.041
20 | VYKEIAITNGCINRMSKEELRAKLSEFKLETRGVVDVLKKRLKNYYKKQK [K35V] | -0.262 ± 0.044
21 | VYKEIAITNGCINRMSKEELRAKLSEFKLETRSVKDVLKKRLKNYYKKQK [G33S] | -0.787 ± 0.038
22 | VYKEIAITNGCINRMSKEELRAKLSEFKLETRWVKDVLKKRLKNYYKKQK [G33W] | -0.779 ± 0.11
23 | VYKEIAITNGCINRMSKEELRAKLSEFKLETRYVKDVLKKRLKNYYKKQK [G33Y] | -0.931 ± 0.053
24 | VYKEIAITNGCINRMSKEELRAKLSEFKLETRDVKDVLKKRLKNYYKKQK [G33D] | -0.663 ± 0.046
25 | VYKEIAITNGCINRMSKEELRAKLSEFKLETRMVKDVLKKRLKNYYKKQK [G33M] | -0.988 ± 0.082
26 | VYKEIAITNGCINRMSKEELRAKLSEFKLETRFVKDVLKKRLKNYYKKQK [G33F] | -0.977 ± 0.056

Row | Variant | abundance fitness
27 | VYKEIAITNGCINRMSKEELRAKLSEFKLETRTVKDVLKKRLKNYYKKQK [G33T] | -1.06 ± 0.058
28 | VYKEIAITNGCINRMSKEELRAKLSEFKLETREVKDVLKKRLKNYYKKQK [G33E] | -0.791 ± 0.12
29 | VYKEIAITNGCINRMSKEELRAKLSEFKLETRQVKDVLKKRLKNYYKKQK [G33Q] | -1.09 ± 0.089
30 | VYKEIAITNGCINRMSKEELRAKLSEFKLETRHVKDVLKKRLKNYYKKQK [G33H] | -0.875 ± 0.057
31 | VYKEIAITNGCINRMSKEELRAKLSEFKLETRIVKDVLKKRLKNYYKKQK [G33I] | -0.97 ± 0.053
32 | VYKEIAITNGCINRMSKEELRAKLSEFKLETRNVKDVLKKRLKNYYKKQK [G33N] | -0.991 ± 0.061
33 | VYKEIAITNGCINRMSKEELRAKLSEFKLETRRVKDVLKKRLKNYYKKQK [G33R] | -0.739 ± 0.053
34 | VYKEIAITNGCINRMSKEELRAKLSEFKLETRKVKDVLKKRLKNYYKKQK [G33K] | -0.93 ± 0.09
35 | VYKEIAITNGCINRMSKEELRAKLSEFKLETRGVKNVLKKRLKNYYKKQK [D36N] | 0.02 ± 0.036
36 | VYKEIAITNGCINRMSKEELRAKLSEFKLETRGVKLVLKKRLKNYYKKQK [D36L] | -0.201 ± 0.033
37 | VYKEIAITNGCINRMSKEELRAKLSEFKLETRGVKAVLKKRLKNYYKKQK [D36A] | -0.024 ± 0.035
38 | VYKEIAITNGCINRMSKEELRAKLSEFKLETRGVKKVLKKRLKNYYKKQK [D36K] | 0.044 ± 0.054
39 | VYKEIAITNGCINRMSKEELRAKLSEFKLETRGVKFVLKKRLKNYYKKQK [D36F] | -0.289 ± 0.035
40 | VYKEIAITNGCINRMSKEELRAKLSEFKLETRGVKVVLKKRLKNYYKKQK [D36V] | -0.292 ± 0.035
41 | VYKEIAITNGCINRMSKEELRAKLSEFKLETRGVKRVLKKRLKNYYKKQK [D36R] | 0 ± 0.035
42 | VYKEIAITNGCINRMSKEELRAKLSEFKLETRGVKPVLKKRLKNYYKKQK [D36P] | -0.17 ± 0.036
43 | VYKEIAITNGCINRMSKEELRAKLSEFKLETRGVKEVLKKRLKNYYKKQK [D36E] | -0.379 ± 0.051
44 | VYKEIAITNGCINRMSKEELRAKLSEFKLETRGVKSVLKKRLKNYYKKQK [D36S] | 0.048 ± 0.032
45 | VYKEIAITNGCINRMSKEELRAKLSEFKLETRGVKIVLKKRLKNYYKKQK [D36I] | -0.334 ± 0.037
46 | VYKEIAITNGCINRMSKEELRAKLSEFKLETRGVKWVLKKRLKNYYKKQK [D36W] | -0.106 ± 0.048
47 | VYKEIAITNGCINRMSKEELRAKLSEFKLETRGVKTVLKKRLKNYYKKQK [D36T] | -0.042 ± 0.037
48 | VYKEIAITNGCINRMSKEELRAKLSEFKLETRGVKHVLKKRLKNYYKKQK [D36H] | 0 ± 0.036
49 | VYKEIAITNGCINRMSKEELRAKLSEFKLETRGVKYVLKKRLKNYYKKQK [D36Y] | -0.176 ± 0.034
50 | VYKEIAITNGCINRMSKEELRAKLSEFKLETRGVKQVLKKRLKNYYKKQK [D36Q] | -0.236 ± 0.047
51 | VYKEIAITNGCINRMSKEELRAKLSEFKLETRGVKMVLKKRLKNYYKKQK [D36M] | -0.27 ± 0.048
52 | VYKEIAITNGCINRMSKEELRAKLSEFKLETRGVKGVLKKRLKNYYKKQK [D36G] | -0.244 ± 0.035
